According to publication PMC4938799, “LD Motif Recognition by Talin: Structure of the Talin-DLC1 Complex” (Structure(London, England:1993), 2016):

Tested on: endogenous paxillin
Assay: GST pull-down of endogenous paxillin in A549 and H358 cells
Assay type: cell-based, human
Details: anti-paxillin immunoblot
Excerpt: To investigate whether the biological effects of GST-R8 might be partly mediated via paxillin, we first confirmed that endogenous paxillin is expressed in cell lines A549, H358, and 293T (Figure S6A). […] As a positive control, HEK293 cells were co-transfected with a paxillin-DDK construct (OriGene) and GST-R8 (wild-type, R1544E and 2E mutants), followed by a GST pull-down assay.
Figure S6, related to figure 5. Binding of GST-talin R8 to endogenous paxillin is undetectable in A549 and H358 cells.
(A) The expression of endogenous paxillin in cell lines. Cell extracts were assayed by immunoblotting with anti-paxillin antibody.
(B) A complex of GST-talin R8 with endogenous paxillin is undetectable in A549 (top) and H358 (bottom) cells. Cells were transfected with the GST constructs indicated, and cell extracts subjected to a glutathione bead pull down assay followed by immunoblotting with anti-GST and anti-paxillin antibodies on the same membrane.
(C) Wild-type GST-talin R8 forms a complex with transfected paxillin in 293T cells. […]
G418 colony growth, soft agar growth and cell migration assays - As described previously (Qian et al., 2009), transfected A549 cells were counted, and equal numbers of cells were seeded in […]

B1: GST-R8: GST-tagged talin R8, amino acids 1,453–1,580 (protein)
chain: NSQAGQQGLVEPTQFARANQAIQMACQSLGEPGCTQAQVLSAATIVAKHTSALCNSCRLASARTANPTAKRQFVQSAKEVANSTANLVKTIKALDGDFTEENRAQCRAATAPLLEAVDNLSAFASNPE
modifications: left off: GST, end not stated, kept
complex with endogenous paxillin: insufficient to detect binding
complex with endogenous paxillin (listed as GST-talin R8): undetectable
